Laboratory results taken from doi:10.1101/2022.10.05.511023 (bioRxiv, 2022).
Values belong to the binder of their own block, whether it stands above or below them.

How the values were obtained:
[1] = target: T1, non-farnesylated GBP1 (guanylate binding protein 1) (human), P32455; test: dynamic light scattering; conditions: remark: other sources report otherwise
T1 chain: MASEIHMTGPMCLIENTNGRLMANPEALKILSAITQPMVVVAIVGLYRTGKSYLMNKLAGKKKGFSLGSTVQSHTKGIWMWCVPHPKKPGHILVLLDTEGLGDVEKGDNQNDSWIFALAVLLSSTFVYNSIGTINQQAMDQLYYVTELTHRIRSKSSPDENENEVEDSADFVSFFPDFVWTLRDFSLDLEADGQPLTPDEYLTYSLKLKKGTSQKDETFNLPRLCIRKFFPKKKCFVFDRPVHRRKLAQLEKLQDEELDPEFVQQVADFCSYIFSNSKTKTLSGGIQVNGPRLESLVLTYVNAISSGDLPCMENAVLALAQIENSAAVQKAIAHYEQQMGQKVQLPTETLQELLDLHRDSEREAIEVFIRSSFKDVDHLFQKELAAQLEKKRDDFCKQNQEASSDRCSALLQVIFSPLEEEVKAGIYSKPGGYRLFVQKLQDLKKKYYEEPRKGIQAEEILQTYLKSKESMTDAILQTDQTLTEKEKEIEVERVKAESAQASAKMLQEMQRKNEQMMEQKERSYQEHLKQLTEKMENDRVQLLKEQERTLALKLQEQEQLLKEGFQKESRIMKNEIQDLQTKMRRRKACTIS

[2] = target: T2, non-geranylgeranylated GBP5 (guanylate binding protein 5) (human), Q96PP8; test: dynamic light scattering; conditions: remark: other sources report otherwise
T2 chain: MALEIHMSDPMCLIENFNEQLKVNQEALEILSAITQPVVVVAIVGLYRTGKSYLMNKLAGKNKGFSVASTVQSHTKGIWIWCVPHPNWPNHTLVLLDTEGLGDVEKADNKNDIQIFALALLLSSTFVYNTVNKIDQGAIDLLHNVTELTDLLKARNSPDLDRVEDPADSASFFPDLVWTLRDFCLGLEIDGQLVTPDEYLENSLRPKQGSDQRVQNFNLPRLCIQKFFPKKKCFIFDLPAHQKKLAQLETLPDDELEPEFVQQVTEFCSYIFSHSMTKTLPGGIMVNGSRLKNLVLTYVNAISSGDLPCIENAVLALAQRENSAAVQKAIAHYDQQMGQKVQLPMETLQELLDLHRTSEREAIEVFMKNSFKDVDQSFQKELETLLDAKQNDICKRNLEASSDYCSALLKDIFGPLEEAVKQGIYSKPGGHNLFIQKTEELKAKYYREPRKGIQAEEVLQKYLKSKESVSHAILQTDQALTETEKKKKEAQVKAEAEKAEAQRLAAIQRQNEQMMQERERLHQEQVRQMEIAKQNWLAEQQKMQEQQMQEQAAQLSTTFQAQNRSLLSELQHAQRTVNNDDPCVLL

[3] = target: T3, farnesylated GBP1 (guanylate binding protein 1) (human, UniProt P32455 1-592, farnesylated in vitro (C-terminal farnesyl moiety)); test: absorbance-based light scattering
T3 sequence: T1 chain

[4] = target: T4, geranylgeranylated GBP5 (guanylate binding protein 5) (human), Q96PP8; test: dynamic light scattering; conditions: remark: other sources report otherwise
T4 chain: T2 chain

dynamic light scattering = target: the molecule itself; test: dynamic light scattering

stoichiometry N [1]: 2
B1: non-farnesylated GBP1 (guanylate binding protein 1), P32455 1-592 (natural protein)
chain: T1 chain

stoichiometry N [2]: 2
B2: non-geranylgeranylated GBP5 (guanylate binding protein 5), Q96PP8 1-586 (natural protein)
chain: T2 chain

stoichiometry N [4]: 2
B4: geranylgeranylated GBP5 (guanylate binding protein 5), Q96PP8 1-586 (natural protein)
chain: T2 chain
modifications: here or on the partner: geranylgeranylated in vitro (C-terminal geranylgeranyl moiety); geranylgeranylated in vitro (C-terminal geranylgeranyl moiety)

The remaining lines, values behind:

B3: geranylgeranylated GBP5 (guanylate binding protein 5) (natural protein, human, UniProt Q96PP8 1-586, looked up)
chain: T2 chain
modifications: geranylgeranylated in vitro (C-terminal geranylgeranyl moiety)
binding result [3]: binds

B5: geranylgeranylated GBP2 (guanylate binding protein 2) (natural protein, human, UniProt P32456 1-591, looked up)
chain: MAPEINLPGPMSLIDNTKGQLVVNPEALKILSAITQPVVVVAIVGLYRTGKSYLMNKLAGKKNGFSLGSTVKSHTKGIWMWCVPHPKKPEHTLVLLDTEGLGDIEKGDNENDSWIFALAILLSSTFVYNSMGTINQQAMDQLHYVTELTDRIKANSSPGNNSVDDSADFVSFFPAFVWTLRDFTLELEVDGEPITADDYLELSLKLRKGTDKKSKSFNDPRLCIRKFFPKRKCFVFDWPAPKKYLAHLEQLKEEELNPDFIEQVAEFCSYILSHSNVKTLSGGIPVNGPRLESLVLTYVNAISSGDLPCMENAVLALAQIENSAAVEKAIAHYEQQMGQKVQLPTETLQELLDLHRDSEREAIEVFMKNSFKDVDQMFQRKLGAQLEARRDDFCKQNSKASSDCCMALLQDIFGPLEEDVKQGTFSKPGGYRLFTQKLQELKNKYYQVPRKGIQAKEVLKKYLESKEDVADALLQTDQSLSEKEKAIEVERIKAESAEAAKKMLEEIQKKNEEMMEQKEKSYQEHVKQLTEKMERDRAQLMAEQEKTLALKLQEQERLLKEGFENESKRLQKDIWDIQMRSKSLEPICNIL
modifications: geranylgeranylated in vitro (C-terminal geranylgeranyl moiety)
binding result [3]: binds | binding result (dynamic light scattering): binds

B6: non-geranylgeranylated GBP2 (guanylate binding protein 2) (natural protein, human, UniProt P32456 1-591, looked up)
chain: B5 chain
stoichiometry N (dynamic light scattering): 2
